Patent US20230204576A1

What was measured:
[1] = target: HLA A*03:01, labelled with Alexafluor 647 (human); assay: microfluidic diffusional sizing, global fit at 25 nM and 500 pM HLA
[2] = target: HLA A*03:01, labelled with Alexafluor 647 (human); assay: microfluidic diffusional sizing, 25 nM HLA, non-linear binding fit

For antibody W6/32, the Kd [1] was 466 pM, the Kd [2] was 961 pM and the binding site concentration B1 [2] was 13 nM.
